The source of these data is publication doi:10.1101/2022.05.17.492379.

The Kd is the concentration at which binding is half-saturated.

One data set addresses Nr5a2 (Mus musculus, UniProt P45448 1-560). Briefly: fluorescence polarization. (In general: In fluorescence polarisation assays a small probe gives low polarisation when free and higher when bound to something large.)
A further data set concerns the target T1, Esrrb (Mus musculus, UniProt Q61539 1-433).
T1 sequence: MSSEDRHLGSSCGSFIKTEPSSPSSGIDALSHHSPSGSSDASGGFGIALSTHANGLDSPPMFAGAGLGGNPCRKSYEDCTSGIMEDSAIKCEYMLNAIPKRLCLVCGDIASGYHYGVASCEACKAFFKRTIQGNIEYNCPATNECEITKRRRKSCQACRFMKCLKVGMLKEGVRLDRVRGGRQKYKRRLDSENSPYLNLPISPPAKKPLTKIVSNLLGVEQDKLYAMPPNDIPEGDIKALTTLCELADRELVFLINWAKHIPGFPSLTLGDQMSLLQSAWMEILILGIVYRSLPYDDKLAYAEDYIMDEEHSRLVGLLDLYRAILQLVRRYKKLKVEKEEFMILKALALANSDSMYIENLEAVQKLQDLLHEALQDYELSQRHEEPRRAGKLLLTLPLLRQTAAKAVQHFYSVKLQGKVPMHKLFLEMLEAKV
The data set can be described thus: fluorescence polarization.

Nr5a2, sequence (P45448 whole entry): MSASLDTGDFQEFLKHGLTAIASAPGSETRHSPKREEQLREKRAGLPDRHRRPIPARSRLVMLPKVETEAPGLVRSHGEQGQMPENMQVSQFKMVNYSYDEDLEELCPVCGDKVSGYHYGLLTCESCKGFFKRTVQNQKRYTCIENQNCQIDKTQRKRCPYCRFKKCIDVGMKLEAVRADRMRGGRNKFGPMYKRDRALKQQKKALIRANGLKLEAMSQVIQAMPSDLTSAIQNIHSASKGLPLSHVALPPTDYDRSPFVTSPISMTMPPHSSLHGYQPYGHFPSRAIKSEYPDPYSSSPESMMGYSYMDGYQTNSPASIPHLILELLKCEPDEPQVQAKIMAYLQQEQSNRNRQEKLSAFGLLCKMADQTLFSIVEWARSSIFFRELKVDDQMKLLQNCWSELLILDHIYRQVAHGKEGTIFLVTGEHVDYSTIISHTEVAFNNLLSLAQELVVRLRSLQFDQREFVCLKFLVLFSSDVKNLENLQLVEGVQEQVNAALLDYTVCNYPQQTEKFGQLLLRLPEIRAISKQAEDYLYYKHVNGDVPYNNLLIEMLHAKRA

B1: Esrrb motif DNA (dsDNA)
DNA 1: GAGAGAGTCAAGGTCATGGCTCACT
DNA 2: AGTGAGCCATGACCTTGACTCTCTC
Turning to B1, the dissociation constant (Kd) with Nr5a2 turned out to be 6.49 ± 0.35 nM; with Esrrb, 8.56 ± 0.69 nM.

B2: Nr5a2 motif DNA (dsDNA)
DNA 1: GAGAGAGTCAAGGCCATGGCTCACT
DNA 2: AGTGAGCCATGGCCTTGACTCTCTC
B2: the Kd with Nr5a2 is 5.62 ± 1 nM; in the data set with Esrrb, 626 ± 133 nM.
